Source: JP2022028645A (dated 2022)

Tests used:
[1] = biological target: T1, Recombinant human CD3 antigen: heterodimer of CD3 delta and CD3 epsilon ectodomains fused to human Fc domain … (human); experiment: SPR (Biacore T200), TCB captured at 20 nM by anti-PGLALA antibody, CD3 antigen as analyte, 1:1 Langmuir fit
T1 construct: also called 組換えCD3; ヒトCD3

[2] = biological target: T2, Recombinant cynomolgus CD3 antigen: heterodimer of cynomolgus CD3 delta and CD3 epsilon ectodomains fused to … (cynomolgus monkey); experiment: as above
T2 construct: also called カニクイザルCD3

[3] = biological target: T3, EGFRvIII-ECD avi his (extracellular domain of human EGFRvIII fused to C-terminal Avi-tag and His-tag) (human); experiment: SPR (Biacore T200), TCB (5 nM) captured by anti-Fc antibody, EGFRvIII-ECD avi his 3-fold dilution series as analyte, 1:1 Langmuir fit
T3 construct: also called 組み換えEGFRvIII; EGFRvIII抗原

[4] = biological target: T1, Recombinant human CD3 antigen: …; experiment: SPR (Biacore T200), TCB captured by anti-PGLALA antibody, CD3 antigen 12.35-3000 nM as analyte, 1:1 Langmuir fit
[5] = biological target: T2, Recombinant cynomolgus CD3 antigen: …; experiment: as above
[6] = biological target: T4, Human EGFRvIII expressed on cells (CHO-EGFRvIII, DK-MG, U87MG-EGFRvIII) (human, UniProt P00533 298-1210); experiment: flow cytometry on CHO-EGFRvIII and EGFRvIII-positive DK-MG cells
T4 construct: also called EGFRvIII; huEGFRvIII

[7] = biological target: T4, Human EGFRvIII expressed on cells …; experiment: SPR and flow cytometry on U87MG-EGFRvIII and MKN-45 cells, compared with the parental binder
[8] = biological target: T4, Human EGFRvIII expressed on cells …; experiment: flow cytometry on CHO-EGFRvIII cells, TCB against the corresponding IgG
[9] = biological target: T1, Recombinant human CD3 antigen: …; experiment: SPR (Biacore T200), antibody captured by anti-Fab, CD3 antigen 10 ug/ml, relative active concentration after 14 days of temperature stress
[10] = biological target: T5, Human TYRP1 extracellular domain (ECD), monomeric fusion to human Fc domain with knob-into-hole and PG LALA … (human, UniProt P01857 104-328 = IgG part); experiment: SPR (Biacore T200), TYRP1 ECD-Fc captured by anti-PGLALA antibody, Fab 3-fold dilution series as analyte, 1:1 Langmuir fit
T5 construct: also called ヒトTYRP1

[11] = biological target: T6, Cynomolgus TYRP1 extracellular domain (ECD), monomeric fusion to human Fc domain with knob-into-hole and PG … (cynomolgus monkey, UniProt P01857 104-328 = IgG part); experiment: as above
T6 construct: also called カニクイザルTYRP1

[12] = biological target: T7, Mouse TYRP1 extracellular domain (ECD), monomeric fusion to human Fc domain with knob-into-hole and PG LALA … (mouse, UniProt P01857 104-328 = IgG part); experiment: as above
T7 construct: also called マウスTYRP1

B1: EGFRvIII TCB CD3 opt (EGFRvIII binder P063.056 and optimized CD3 binder, 2+1 IgG CrossFab inverted) (bispecific antibody)
heavy 1: not shown
heavy 2: EVQLVQSGAEVKKPGESLKISCKGSGYSFDSYWIAWVRQMPGKGLEWMGVIHPYDSDTRYSPSFQGQVTISADKSISTAYLQWSSLKASDTAMYYCARVSRSSYAFDYWGQGTLVTVSSASTKGPSVFPLAPSSKSTSGGTAALGCLVEDYFPEPVTVSWNSGALTSGVHTFPAVLQSSGLYSLSSVVTVPSSSLGTQTYICNVNHKPSNTKVDEKVEPKSCDKTHTCPPCPAPEAAGGPSVFLFPPKPKDTLMISRTPEVTCVVVDVSHEDPEVKFNWYVDGVEVHNAKTKPREEQYNSTYRVVSVLTVLHQDWLNGKEYKCKVSNKALGAPIEKTISKAKGQPREPQVCTLPPSRDELTKNQVSLSCAVKGFYPSDIAVEWESNGQPENNYKTTPPVLDSDGSFFLVSKLTVDKSRWQQGNVFSCSVMHEALHNHYTQKSLSLSP
light 1: not shown
light 2: EVQLLESGGGLVQPGGSLRLSCAASGFQFSSYAMNWVRQAPGKGLEWVSRIRSKYNNYATYYADSVKGRFTISRDDSKNTLYLQMNSLRAEDTAVYYCVRHTTFPSSYVSYYGYWGQGTLVTVSSASVAAPSVFIFPPSDEQLKSGTASVVCLLNNFYPREAKVQWKVDNALQSGNSQESVTEQDSKDSTYSLSSTLTLSKADYEKHKVYACEVTHQGLSSPVTKSFNRGEC
notes: Chain roles inferred as for TYRP1 TCB; also called EGFRvIII TCB; P063.056 EGFRvIII TCB with CD3opt
Work on B1 yielded a Kd [1] of 30 nM, a Kd [2] of 20 nM and a Kd [3] of 6 nM.

B2: TYRP1 TCB CD3 opt (T cell bispecific antibody to CD3 and TYRP1 with optimized CD3 binder, 2+1 IgG CrossFab inverted, charge modifications, PGLALA) (bispecific antibody)
heavy 1: not shown
heavy 2: QVQLVQSGAEVKKPGASVKVSCKASGFNIKDYFLHWVRQAPGQGLEWMGWINPDNGNTVYAQKFQGRVTMTADTSTSTVYMELSSLRSEDTAVYYCTRRDYTYEKAALDYWGQGTLVTVSSASTKGPSVFPLAPSSKSTSGGTAALGCLVEDYFPEPVTVSWNSGALTSGVHTFPAVLQSSGLYSLSSVVTVPSSSLGTQTYICNVNHKPSNTKVDEKVEPKSCDKTHTCPPCPAPEAAGGPSVFLFPPKPKDTLMISRTPEVTCVVVDVSHEDPEVKFNWYVDGVEVHNAKTKPREEQYNSTYRVVSVLTVLHQDWLNGKEYKCKVSNKALGAPIEKTISKAKGQPREPQVCTLPPSRDELTKNQVSLSCAVKGFYPSDIAVEWESNGQPENNYKTTPPVLDSDGSFFLVSKLTVDKSRWQQGNVFSCSVMHEALHNHYTQKSLSLSP
light 1: DIQMTQSPSSLSASVGDRVTITCRASGNIYNYLAWYQQKPGKVPKLLIYDAKTLADGVPSRFSGSGSGTDFTLTISSLQPEDVATYYCQHFWSLPFTFGQGTKLEIKRTVAAPSVFIFPPSDRKLKSGTASVVCLLNNFYPREAKVQWKVDNALQSGNSQESVTEQDSKDSTYSLSSTLTLSKADYEKHKVYACEVTHQGLSSPVTKSFNRGEC
light 2: EVQLLESGGGLVQPGGSLRLSCAASGFQFSSYAMNWVRQAPGKGLEWVSRIRSKYNNYATYYADSVKGRFTISRDDSKNTLYLQMNSLRAEDTAVYYCVRHTTFPSSYVSYYGYWGQGTLVTVSSASVAAPSVFIFPPSDEQLKSGTASVVCLLNNFYPREAKVQWKVDNALQSGNSQESVTEQDSKDSTYSLSSTLTLSKADYEKHKVYACEVTHQGLSSPVTKSFNRGEC
notes: also called TYRP1 TCB; TYRP-1 TCB
With B2 the Kd [4] was 50 nM and the Kd [5] was 20 nM.

B3: EGFRvIII TCB CD3 orig (EGFRvIII binder P063.056 and original CD3 binder, 2+1 IgG CrossFab inverted) (bispecific antibody)
heavy 1: not shown
heavy 2: EVQLVQSGAEVKKPGESLKISCKGSGYSFDSYWIAWVRQMPGKGLEWMGVIHPYDSDTRYSPSFQGQVTISADKSISTAYLQWSSLKASDTAMYYCARVSRSSYAFDYWGQGTLVTVSSASTKGPSVFPLAPSSKSTSGGTAALGCLVEDYFPEPVTVSWNSGALTSGVHTFPAVLQSSGLYSLSSVVTVPSSSLGTQTYICNVNHKPSNTKVDEKVEPKSCDKTHTCPPCPAPEAAGGPSVFLFPPKPKDTLMISRTPEVTCVVVDVSHEDPEVKFNWYVDGVEVHNAKTKPREEQYNSTYRVVSVLTVLHQDWLNGKEYKCKVSNKALGAPIEKTISKAKGQPREPQVCTLPPSRDELTKNQVSLSCAVKGFYPSDIAVEWESNGQPENNYKTTPPVLDSDGSFFLVSKLTVDKSRWQQGNVFSCSVMHEALHNHYTQKSLSLSP
light 1: not shown
light 2: EVQLLESGGGLVQPGGSLRLSCAASGFTFSTYAMNWVRQAPGKGLEWVSRIRSKYNNYATYYADSVKGRFTISRDDSKNTLYLQMNSLRAEDTAVYYCVRHGNFGNSYVSWFAYWGQGTLVTVSSASVAAPSVFIFPPSDEQLKSGTASVVCLLNNFYPREAKVQWKVDNALQSGNSQESVTEQDSKDSTYSLSSTLTLSKADYEKHKVYACEVTHQGLSSPVTKSFNRGEC
notes: chain roles inferred; also called P063.056 EGFRvIII TCB with CD3orig
With B3 the Kd [1] was 40 nM and the Kd [3] was 6 nM.

B4: TYRP1 TCB CD3 orig (T cell bispecific antibody to CD3 and TYRP1 with original CD3 binder, 2+1 IgG CrossFab inverted) (bispecific antibody)
heavy 1: not shown
heavy 2: QVQLVQSGAEVKKPGASVKVSCKASGFNIKDYFLHWVRQAPGQGLEWMGWINPDNGNTVYAQKFQGRVTMTADTSTSTVYMELSSLRSEDTAVYYCTRRDYTYEKAALDYWGQGTLVTVSSASTKGPSVFPLAPSSKSTSGGTAALGCLVEDYFPEPVTVSWNSGALTSGVHTFPAVLQSSGLYSLSSVVTVPSSSLGTQTYICNVNHKPSNTKVDEKVEPKSCDKTHTCPPCPAPEAAGGPSVFLFPPKPKDTLMISRTPEVTCVVVDVSHEDPEVKFNWYVDGVEVHNAKTKPREEQYNSTYRVVSVLTVLHQDWLNGKEYKCKVSNKALGAPIEKTISKAKGQPREPQVCTLPPSRDELTKNQVSLSCAVKGFYPSDIAVEWESNGQPENNYKTTPPVLDSDGSFFLVSKLTVDKSRWQQGNVFSCSVMHEALHNHYTQKSLSLSP
light 1: DIQMTQSPSSLSASVGDRVTITCRASGNIYNYLAWYQQKPGKVPKLLIYDAKTLADGVPSRFSGSGSGTDFTLTISSLQPEDVATYYCQHFWSLPFTFGQGTKLEIKRTVAAPSVFIFPPSDRKLKSGTASVVCLLNNFYPREAKVQWKVDNALQSGNSQESVTEQDSKDSTYSLSSTLTLSKADYEKHKVYACEVTHQGLSSPVTKSFNRGEC
light 2: EVQLLESGGGLVQPGGSLRLSCAASGFTFSTYAMNWVRQAPGKGLEWVSRIRSKYNNYATYYADSVKGRFTISRDDSKNTLYLQMNSLRAEDTAVYYCVRHGNFGNSYVSWFAYWGQGTLVTVSSASVAAPSVFIFPPSDEQLKSGTASVVCLLNNFYPREAKVQWKVDNALQSGNSQESVTEQDSKDSTYSLSSTLTLSKADYEKHKVYACEVTHQGLSSPVTKSFNRGEC
notes: chain roles inferred as for the CD3opt molecule
Binder B4 has a Kd [4] of 50 nM.

B5: EGFRvIII IgG PGLALA P056.021 (antibody, human IgG1, V domains shown)
VH: EVQLVQSGAEVKKPGESLKISCKGSGYSFDSYWIAWVRQMPGKGLEWMGVIHPYDSDTRYSPSFQGQVTISADKSISTAYLQWSSLKASDTAMYYCARVSRSSYAFDYWGQGTLVTVSS
VL: not shown
notes: Human IgG1 with P329G L234A L235A; also called P056.021
B5: binds [6].

B6: EGFRvIII IgG PGLALA P063.056 (affinity-matured EGFRvIII binder) (antibody, human IgG1, V domains shown)
VH: EVQLVQSGAEVKKPGESLKISCKGSGYSFDSYWIAWVRQMPGKGLEWMGVIHPYDSDTRYSPSFQGQVTISADKSISTAYLQWSSLKASDTAMYYCARVSRSSYAFDYWGQGTLVTVSS
VL: not shown
notes: Human IgG1 PGLALA; also called P063.056
B6: binds [7].

B7: EGFRvIII TCB P056.021 (with CD3orig, 2+1 IgG CrossFab inverted) (bispecific antibody, V domains shown)
VH 1: EVQLVQSGAEVKKPGESLKISCKGSGYSFDSYWIAWVRQMPGKGLEWMGVIHPYDSDTRYSPSFQGQVTISADKSISTAYLQWSSLKASDTAMYYCARVSRSSYAFDYWGQGTLVTVSS
VL 1: not shown
VH 2: not shown
VL 2: QAVVTQEPSLTVSPGGTVTLTCGSSTGAVTTSNYANWVQEKPGQAFRGLIGGTNKRAPGTPARFSGSLLGGKAALTLSGAQPEDEAEYYCALWYSNLWVFGGGTKLTVL
notes: only the variable domains can be tied to it; also called P056.021 EGFRvIII TCB; parental EGFRvIII TCB
B7: binds [8].

B8: CD3 opt ヒトIgG1 PGLALA (optimized CD3 binder, human IgG1 with P329G L234A L235A) (antibody, V domains shown)
VH: EVQLLESGGGLVQPGGSLRLSCAASGFQFSSYAMNWVRQAPGKGLEWVSRIRSKYNNYATYYADSVKGRFTISRDDSKNTLYLQMNSLRAEDTAVYYCVRHTTFPSSYVSYYGYWGQGTLVTVSS
VL: QAVVTQEPSLTVSPGGTVTLTCGSSTGAVTTSNYANWVQEKPGQAFRGLIGGTNKRAPGTPARFSGSLLGGKAALTLSGAQPEDEAEYYCALWYSNLWVFGGGTKLTVLR
notes: also called CD3opt; CD3opt IgG PGLALA
B8: binds [9].

B9: TYRP1 Fab断片 (Fab fragment of the humanized TA99-derived TYRP1 binder, made by plasmin digestion of the corresponding antibody) (Fab, V domains shown)
VH: QVQLVQSGAEVKKPGASVKVSCKASGFNIKDYFLHWVRQAPGQGLEWMGWINPDNGNTVYAQKFQGRVTMTADTSTSTVYMELSSLRSEDTAVYYCTRRDYTYEKAALDYWGQGTLVTVSS
VL: DIQMTQSPSSLSASVGDRVTITCRASGNIYNYLAWYQQKPGKVPKLLIYDAKTLADGVPSRFSGSGSGTDFTLTISSLQPEDVATYYCQHFWSLPFTFGQGTKLEIK
notes: also called TYRP1 Fab
In the case of B9, the Kd [10] is reported as 0.13 nM, the Kd [11] is reported as 0.18 nM and the Kd [12] is reported as 0.53 nM.
